Experiments:
hTIGIT mutant I68A = target: T1, hTIGIT mutant I68A (human, UniProt Q495A1); experiment: SPR (BIACORE), N=2
T1 sequence (TIGIT, looked up): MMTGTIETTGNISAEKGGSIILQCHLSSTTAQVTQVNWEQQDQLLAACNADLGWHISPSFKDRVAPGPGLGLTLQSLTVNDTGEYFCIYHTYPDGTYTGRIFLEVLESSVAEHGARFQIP

hTIGIT mutant L65A = target: T2, hTIGIT mutant L65A (human, UniProt Q495A1); experiment: SPR (BIACORE), N=2
T2 sequence (TIGIT, looked up): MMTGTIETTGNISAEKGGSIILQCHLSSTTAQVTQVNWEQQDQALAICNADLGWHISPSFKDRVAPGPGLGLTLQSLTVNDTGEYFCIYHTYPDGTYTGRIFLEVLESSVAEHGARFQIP

hTIGIT mutant Q56A [1] = target: T3, hTIGIT mutant Q56A (human, UniProt Q495A1); experiment: SPR (BIACORE), N=2
T3 sequence (TIGIT, looked up): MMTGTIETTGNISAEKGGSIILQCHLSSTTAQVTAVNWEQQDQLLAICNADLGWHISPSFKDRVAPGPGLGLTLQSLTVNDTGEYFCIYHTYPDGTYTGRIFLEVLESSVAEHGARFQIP

hTIGIT mutant N70A [2] = target: T4, hTIGIT mutant N70A (human, UniProt Q495A1); experiment: SPR (BIACORE), N=2
T4 sequence (TIGIT, looked up): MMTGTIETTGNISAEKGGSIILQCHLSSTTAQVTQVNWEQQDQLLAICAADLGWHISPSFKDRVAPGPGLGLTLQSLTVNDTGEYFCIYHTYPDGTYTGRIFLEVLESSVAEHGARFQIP

hTIGIT mutant T117A = target: T5, hTIGIT mutant T117A (human, UniProt Q495A1); experiment: SPR (BIACORE), N=2
T5 sequence (TIGIT, looked up): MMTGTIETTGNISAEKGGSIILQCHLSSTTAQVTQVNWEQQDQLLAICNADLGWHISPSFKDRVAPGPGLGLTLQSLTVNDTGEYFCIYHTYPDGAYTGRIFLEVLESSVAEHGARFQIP

hTIGIT mutant H76A [3] = target: T6, hTIGIT mutant H76A (human, UniProt Q495A1); experiment: SPR (BIACORE), N=2
T6 sequence (TIGIT, looked up): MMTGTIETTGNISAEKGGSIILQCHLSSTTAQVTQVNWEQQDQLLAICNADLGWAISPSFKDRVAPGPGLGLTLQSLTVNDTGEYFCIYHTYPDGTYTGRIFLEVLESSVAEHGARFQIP

hTIGIT mutant H111A = target: T7, hTIGIT mutant H111A (human, UniProt Q495A1); experiment: SPR (BIACORE), N=2
T7 sequence (TIGIT, looked up): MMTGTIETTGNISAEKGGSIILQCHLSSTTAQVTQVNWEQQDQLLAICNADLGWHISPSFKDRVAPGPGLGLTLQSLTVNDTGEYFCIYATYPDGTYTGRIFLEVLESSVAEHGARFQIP

hTIGIT mutant E60A = target: T8, hTIGIT mutant E60A (human, UniProt Q495A1); experiment: SPR (BIACORE), N=2
T8 sequence (TIGIT, looked up): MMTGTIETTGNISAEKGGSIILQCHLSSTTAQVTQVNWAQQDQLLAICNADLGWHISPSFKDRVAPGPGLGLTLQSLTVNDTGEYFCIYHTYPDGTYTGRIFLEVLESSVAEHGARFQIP

[4] = target: T9, cynomolgus monkey (cyno) TIGIT protein (cynomolgus monkey, UniProt A0A7N9I9V4 89-209); experiment: SPR, captured mAb
T9 sequence (A0A7N9I9V4 entry or part of it): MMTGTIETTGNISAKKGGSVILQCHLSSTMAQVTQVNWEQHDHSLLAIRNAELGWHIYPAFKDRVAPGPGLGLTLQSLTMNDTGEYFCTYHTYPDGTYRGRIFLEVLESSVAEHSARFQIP
Text: (§1) To prevent unwanted pyroglutamate formation for clones 4.1A4, 4.1 D3, and 7.4A3 (also referred to as 1A4, 1 D3, and 4A3, respectively) and to resolve the issue of unpaired cysteine residues for clones 4.1A4 and 7.4A3, the following optimized anti-TIGIT antibody variants were generated: 4.1A4.C96S.Q1E, 4.1A4.C96Y.Q1E, 4.1 D3.Q1E, 7.4A3.C96S.Q1E, and 7.4A3.C96Y.Q1E (also referred to as 1A4.C96S.Q1E, 1A4.C96Y.Q1E, 1 D3.Q1E, 4A3.C96S.Q1E, and 4A3.C96Y.Q1E, respectively). As described below in Table 2, the affinities of these five optimized variants for human and cynomolgus monkey (cyno) TIGIT were then determined by Surface Plasmon Resonance (SRP) (BIACORE™ analysis) and compared to that of their respective parental clones.
(§2) Briefly, a series S CM5 biosensor chip was activated with N-ethyl-N′-(3-dimethylaminopropyl)-carbodiimide hydrochloride (EDC) and N-hydroxysuccinimide (NHS) reagents according to the supplier's (GE Healthcare Biosciences, Piscataway, N.J.) instructions, and a human antibody capture kit was applied to couple goat anti-human Fc IgGs in order to achieve approximately 10,000 response units (RU) on each flow cell, followed by blocking un-reacted groups with 1M ethanolamine.
(§3) (flow rate: 30 μl/min) with no regeneration between injections. The sensorgrams were recorded and evaluated by BIAcore™ T200 Evaluation Software (version 2.0) after subtraction of reference cell signal. Association rates (kₒₙ) and dissociation rates (koff) were calculated using a simple one-to-one Langmuir binding model. The equilibrium dissociation constant (KD) was calculated as the ratio koff/kₒₙ.

human TIGIT protein [5] = target: T10, human TIGIT protein (human, UniProt Q495A1 22-141, limits assumed); experiment: SPR, captured mAb
T10 construct: Recombinant protein (Genentech) used in ELISA screening and as SPR analyte; also called TIGIT antigen
T10 sequence: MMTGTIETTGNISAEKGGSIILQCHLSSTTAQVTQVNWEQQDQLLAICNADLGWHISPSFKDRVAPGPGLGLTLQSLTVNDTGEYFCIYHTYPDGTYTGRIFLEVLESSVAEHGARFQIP
Text: as §1, §2, §3

[6] = target: T9, cynomolgus monkey (cyno) TIGIT protein; experiment: SPR, monovalent affinity
human TIGIT protein [7] = target: T10, human TIGIT protein; experiment: SPR, monovalent affinity
hTIGIT mutant Q56A [8] = target: T3, hTIGIT mutant Q56A; experiment: SPR (BIACORE) KD normalized to WT, N=2
hTIGIT mutant N70A [9] = target: T4, hTIGIT mutant N70A; experiment: SPR (BIACORE) KD normalized to WT, N=2
hTIGIT mutant H76A [10] = target: T6, hTIGIT mutant H76A; experiment: SPR (BIACORE) KD normalized to WT, N=2

B1: 4.1D3 (antibody, V domains shown)
VH: QVQLQQSGPGLVKPSQTLSLTCAISGDSVSSNSAAWNWIRQSPSRGLEWLGKTYYRFKWYSDYAVSVKGRITINPDTSKNQFSLQLNSVTPEDTAVFYCTRESTTYDLLAGPFDYWGQGTLVTVSS
VL: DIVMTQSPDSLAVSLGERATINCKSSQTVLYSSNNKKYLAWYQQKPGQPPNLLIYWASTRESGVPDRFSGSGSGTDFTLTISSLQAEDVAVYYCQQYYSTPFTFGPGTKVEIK
notes: OMT rat-derived human antibody; also called 4.1D3.Q1
A Kd (hTIGIT mutant I68A) of 10.5 nM, a Kd (hTIGIT mutant L65A) of 8.8 nM and a Kd (hTIGIT mutant Q56A [1]) of 2.7 nM were found for B1 in this work. The Kd (hTIGIT mutant N70A [2]) was 1.7 nM, the Kd (hTIGIT mutant T117A) was 0.7 nM and the Kd (hTIGIT mutant H76A [3]) was 0.7 nM. It also gave a Kd (hTIGIT mutant H111A) of 1.9 nM, a Kd (hTIGIT mutant E60A) of 6.1 nM and a Kd [4] of 3.33 nM. For the same binder, the koff [4] was 0.00207 s⁻¹, the kon [4] was 621000 M⁻¹ s⁻¹ and the Kd (human TIGIT protein [5]) was 0.43 nM. For the same binder, the koff (human TIGIT protein [5]) was 0.00164 s⁻¹, the kon (human TIGIT protein [5]) was 3.84e+06 M⁻¹ s⁻¹ and the Kd [6] was 3.4 nM. For the same binder, the Kd (human TIGIT protein [7]) was 0.61 nM, the “Binding affinity drop vs. WT” value (hTIGIT mutant Q56A [8]) was 5.4 fold and the “Binding affinity drop vs. WT” value (hTIGIT mutant N70A [9]) was 3.4 fold. The “Binding affinity drop vs. WT” value (hTIGIT mutant H76A [10]) was 1.4 fold.

B2: 4.1D3.Q1E (antibody, V domains shown)
VH: EVQLQQSGPGLVKPSQTLSLTCAISGDSVSSNSAAWNWIRQSPSRGLEWLGKTYYRFKWYSDYAVSVKGRITINPDTSKNQFSLQLNSVTPEDTAVFYCTRESTTYDLLAGPFDYWGQGTLVTVSS
VL: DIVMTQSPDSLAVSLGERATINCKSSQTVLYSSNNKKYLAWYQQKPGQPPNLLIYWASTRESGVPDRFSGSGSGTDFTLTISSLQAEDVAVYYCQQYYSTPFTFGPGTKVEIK
A Kd [4] of 3.22 nM, a koff [4] of 0.00154 s⁻¹ and a kon [4] of 478000 M⁻¹ s⁻¹ were found for B2 in this work. It also gave a Kd (human TIGIT protein [5]) of 0.56 nM, a koff (human TIGIT protein [5]) of 0.00097 s⁻¹ and a kon (human TIGIT protein [5]) of 1.72e+06 M⁻¹ s⁻¹. It also gave a Kd [6] of 3.2 nM and a Kd (human TIGIT protein [7]) of 0.57 nM.

B3: 7.4A3.C96S.Q1E (antibody, V domains shown)
VH: EVQLVQSGSDLKKPGASVRVSCKASGYTFTSYPMNWVRQAPGHGLEWMGWINTNTGNPTYVQGFTGRFVFSLDTSVNTAYLQISSLKAEDTAVYFCARTGGHTYDSYAFDVWGQGTMVTVSS
VL: DIQLTQSPTFLSASVGDRVTITCRASQVISSSLAWYQQNPGKAPKLLIYAASTLQSGVPSRFSGSGSGTEFTLTISSLQPEDFVTYYCQHLHGYPSNFGQGTKVEIK
notes: also called 7.4A3.Q1E.C96S
A Kd (hTIGIT mutant I68A) of 4.9 nM, a Kd (hTIGIT mutant L65A) of 3.9 nM and a Kd (hTIGIT mutant Q56A [1]) of 23.7 nM were found for B3 in this work. For the same binder, the Kd (hTIGIT mutant N70A [2]) was 10.7 nM, the Kd (hTIGIT mutant T117A) was 3.3 nM and the Kd (hTIGIT mutant H76A [3]) was 4.2 nM. The Kd (hTIGIT mutant H111A) was 151 nM, the Kd (hTIGIT mutant E60A) was 4.8 nM and the Kd [4] was 2.01 nM. It also gave a koff [4] of 0.000556 s⁻¹, a kon [4] of 276000 M⁻¹ s⁻¹ and a Kd (human TIGIT protein [5]) of 2.97 nM. For the same binder, the koff (human TIGIT protein [5]) was 0.000856 s⁻¹, the kon (human TIGIT protein [5]) was 288000 M⁻¹ s⁻¹ and the Kd [6] was 2.02 nM. For the same binder, the Kd (human TIGIT protein [7]) was 2.97 nM, the “Binding affinity drop vs. WT” value (hTIGIT mutant Q56A [8]) was 13.2 fold and the “Binding affinity drop vs. WT” value (hTIGIT mutant N70A [9]) was 5.9 fold. For the same binder, the “Binding affinity drop vs. WT” value (hTIGIT mutant H76A [10]) was 2.3 fold.

B4: 10A7 (antibody, V domains shown)
VH: EVQLVESGGGLTQPGKSLKLSCEASGFTFSSFTMHWVRQSPGKGLEWVAFIRSGSGIVFYADAVRGRFTISRDNAKNLLFLQMNDLKSEDTAMYYCARRPLGHNTFDSWGQGTLVTVSS
VL: DIVMTQSPSSLAVSPGEKVTMTCKSSQSLYYSGVKENLLAWYQQKPGQSPKLLIYYASIRFTGVPDRFTGSGSGTDYTLTITSVQAEDMGQYFCQQGINNPLTFGDGTKLEIKR
A Kd (hTIGIT mutant I68A) of 17.1 nM, a Kd (hTIGIT mutant L65A) of 10.6 nM and a Kd (hTIGIT mutant Q56A [1]) of 29.5 nM were found for B4 in this work. For the same binder, the Kd (hTIGIT mutant N70A [2]) was 24.3 nM, the Kd (hTIGIT mutant T117A) was 36.4 nM and the Kd (hTIGIT mutant H76A [3]) was > 500 nM. For the same binder, the Kd (hTIGIT mutant H111A) was 33.3 nM, the Kd (hTIGIT mutant E60A) was 40.3 nM and the “Binding affinity drop vs. WT” value (hTIGIT mutant Q56A [8]) was 0.7 fold. For the same binder, the “Binding affinity drop vs. WT” value (hTIGIT mutant N70A [9]) was 0.5 fold and the “Binding affinity drop vs. WT” value (hTIGIT mutant H76A [10]) was > 11 fold.

— patent US20220064286A1 (Genentech, published 2022)
